Results on two molecules are retold here after publication PMC10185304, “Structure of Anabaena flos-aquae gas vesicles revealed by cryo-ET” (Structure (London, England : 1993), 2023).

As a reminder, the stoichiometry N is the number of molecules, sites or subunits per partner or assembly.

To fix the notation:
B1: GvpA from Anabaena flos-aquae (Ana) gas vesicles (natural protein, UniProt P10397 1-71, looked up)
chain: MAVEKTNSSSSLAEVIDRILDKGIVIDAWVRVSLVGIELLAIEARIVIASVETYLKYAEAVGLTQSAAVPA
notes: Gas vesicle structural protein GvpA (~8 kDa), Anabaena flos-aquae (Dolichospermum flos-aquae strain 1403/13F); polymerised into the helical filament that forms the gas vesicle shell; Native protein as it stands in purified gas vesicles; also called Ana GvpA; major structural protein; source: endogenous, in gas vesicles isolated from Anabaena flos-aquae by buoyancy purification
B2: GvpC from Anabaena flos-aquae (Ana) gas vesicles (natural protein, UniProt P09413 1-193, looked up)
chain: MISLMAKIRQEHQSIAEKVAELSLETREFLSVTTAKRQEQAEKQAQELQAFYKDLQETSQQFLSETAQARIAQAEKQAQELLAFHKELQETSQQFLSATAQARIAQAEKQAQELLAFYQEVRETSQQFLSATAQARIAQAEKQAQELLAFHKELQETSQQFLSATADARTAQAKEQKESLLKFRQDLFVSIFG
notes: Gas vesicle protein GvpC, Anabaena flos-aquae (Dolichospermum flos-aquae strain 1403/13F); five 33-residue repeats plus short N and C termini; in PDB 8GBS it is modelled only as a poly-Ala chain of one repeat's length; removed with 6 M urea to give stripped (AnaS) vesicles; also called Ana GvpC; accessory protein GvpC; source: endogenous, in native gas vesicles isolated from Anabaena flos-aquae …

Assay in all cases: cryo-EM structure; cryo-electron tomography with subtomogram averaging of the shell of native Ana gas vesicles (7.7 Å) and of urea-stripped AnaS gas vesicles (7.3 Å), 10 mM HEPES pH 7.5; GvpA homology model (from PDB 7R1C) and a poly-Ala helix for GvpC fitted as rigid bodies
Data set [1] concerns the target B2. As to conditions: both partners purified.
Data set [2] concerns the molecule itself.
Data set [3] addresses B1. As to conditions: both partners purified.

Consider B1, for which the binding result in data set [1] and in data set [2] was “binds” in each case.

On to B2, for which the “stoichiometry N” value in data set [3] is about 0.05 GvpC per GvpA.
